The text below walks through data of publication PMC6307458, “Inhibition of Inflammatory Changes in Human Myometrial Cells by Cell Penetrating Peptide and Small Molecule Inhibitors of NFκB” (Frontiers in Immunology, 2018).

For the data set, the system named is human myometrial cells. Description: Live cell confocal microscopy, delivery of rhodamine cargo. Conditions: live cell spinning disk confocal microscopy; primary human myometrial cells; 1, 3 and 10 μM; 60 min; 37°C, 5% CO2; serum-reduced media (0.1% FCS); 3 independent experiments.

Experimental: Cells were washed in phosphate buffered saline and changed to serum-reduced media (0.1%FCS) for 18–24 h ([39]).
Initial images were collected to assess baseline cellular auto-fluorescence prior to the addition of varying concentrations of fluorophore-CPP/fluorophore- CPP-Cargo/fluorophore-control peptide combinations (see Table 1) that were ready made up in serum-reduced cell media. Further images were captured 60 min following application.
To make a thorough assessment of fluorescent uptake throughout whole cells, all images were captured as a series of slices in the Z plane (range 3–10 slices per area selected, each slice 0.54 μm apart) with the 40x objective using live cell spinning disk confocal microscopy (Andor Revolution XD coupled to an Olympus IX-81 inverted microscope; Andor Belfast UK). All images were digitally recorded with IQ2 software (Andor, Belfast, UK).

“Rhodamine-RQIKIWFQNRRMKW-Aca- TALDWSWLQTE [rhodamine Pen(43-56)–NBD]”: the “delivery of rhodamine fluorophore internal to the cells” value is on record as “demonstrated ability to enter myometrial cells”.
To “Rhodamine–RQIKIWFQNRRMKWKK [Penetratin, conjugated to rhodamine]” belongs “able to enter uterine cells”.
